Reference: paper PMC6966528

Molecular target: mutant E-cadherin-GFP (Y753, 754, 859, and 876 mutated into F) (human) (UniProt P12830)
Assay: co-IP; lysates of HEK293T cells transiently transfected with WT or mutant E-Cdh-GFP; IP with anti-GFP antibody; Western blot for α- and β-Ctn, densitometry relative to the WT band set to 1

Chain of UniProt P12830 (P12830 other isoform, or with tags, fused parts or gaps mutant): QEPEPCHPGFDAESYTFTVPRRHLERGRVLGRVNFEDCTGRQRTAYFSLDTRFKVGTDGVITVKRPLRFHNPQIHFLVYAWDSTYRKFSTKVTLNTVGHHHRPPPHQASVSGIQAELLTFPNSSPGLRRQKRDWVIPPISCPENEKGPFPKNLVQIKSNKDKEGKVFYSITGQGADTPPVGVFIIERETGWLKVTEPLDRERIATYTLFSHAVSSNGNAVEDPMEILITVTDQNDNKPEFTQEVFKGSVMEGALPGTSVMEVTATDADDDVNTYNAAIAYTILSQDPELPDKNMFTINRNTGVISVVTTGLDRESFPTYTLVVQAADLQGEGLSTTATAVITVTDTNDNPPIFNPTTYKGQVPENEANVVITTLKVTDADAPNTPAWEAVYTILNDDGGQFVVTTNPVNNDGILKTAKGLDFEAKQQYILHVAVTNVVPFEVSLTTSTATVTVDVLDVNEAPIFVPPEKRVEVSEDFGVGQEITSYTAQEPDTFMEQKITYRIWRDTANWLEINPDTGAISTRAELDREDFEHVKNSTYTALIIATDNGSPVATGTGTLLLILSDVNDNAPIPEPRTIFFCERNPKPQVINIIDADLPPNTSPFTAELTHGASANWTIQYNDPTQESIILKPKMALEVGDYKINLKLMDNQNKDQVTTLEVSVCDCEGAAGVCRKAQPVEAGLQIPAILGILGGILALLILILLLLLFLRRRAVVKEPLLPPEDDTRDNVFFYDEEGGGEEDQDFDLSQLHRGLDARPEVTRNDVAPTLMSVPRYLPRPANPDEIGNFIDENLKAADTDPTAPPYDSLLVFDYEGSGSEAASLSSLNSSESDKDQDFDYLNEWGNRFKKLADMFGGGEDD

reduction of co-immunoprecipitation relative to WT E-Cdh-GFP [%]	Substance
60	β-catenin (from UniProt P35222 1-781) (natural protein)
60	α-catenin (from UniProt P35221 1-906) (natural protein)
